The text below walks through data of patent publication US20180273635A1 (Zymeworks, published 2018).

For orientation: Kd means the equilibrium constant for the complex coming apart. Broadly, the koff is the rate constant with which the complex falls apart. Broadly, the kon is a measure of how fast the partners come together.

Where a chain is given by its changes, count along the chain named.

B1: Variant 14039 (antibody, human IgG1, kappa)
heavy: EVQLVESGGGLVQPGGSLRLSCAASGFTFYDYTMDWVRQAPGKGLEWVADVNPNSGGSIYNQRFKGRFTLSVDRSKNTLYLQMNSLRAEDTAVYYCARNLGPSFYFDYWGQGTLVTVSSASTKGPSVFPLAPSSKSTSGGTAALGCLVKDYFPEPVTVSWNSGALTSGVHTFPAVLQSSGLYSLSSVVTVPSSSLGTQTYICNVNHKPSNTKVDKKVEPKSCDKTHTCPPCPAPELLGGPSVFLFPPKPKDTLMISRTPEVTCVVVDVSHEDPEVKFNWYVDGVEVHNAKTKPREEQYNSTYRVVSVLTVLHQDWLNGKEYKCKVSNKALPAPIEKTISKAKGQPREPQVYVYPPSRDELTKNQVSLTCLVKGFYPSDIAVEWESNGQPENNYKTTPPVLDSDGSFALVSKLTVDKSRWQQGNVFSCSVMHEALHNHYTQKSLSLSPG
light: not shown
chain: not shown
notes: OA (one-armed) format; clones 7813, 7919, 4372; also called v14039
B2: Variant 14047 (antibody, human IgG1, kappa)
heavy: B1 heavy with Y30Q, K76W
light: not shown
chain: not shown
notes: OA (one-armed) format; clones 8775, 7917, 4372; also called v14047
B3: Variant 14040 (antibody, human IgG1, kappa)
heavy: B1 heavy with Y30T, K76E, S103W
light: not shown
chain: not shown
notes: OA (one-armed) format; clones 8783, 1811, 4372; also called v14040
B4: Variant 14042 (antibody, human IgG1, kappa)
heavy: B1 heavy with Y30Q, G57Y
light: not shown
chain: not shown
notes: OA (one-armed) format; clones 8788, 1811, 4372; also called v14042
B5: Variant 14046 (antibody, human IgG1, kappa)
heavy: B1 heavy with Y30T, K76W
light: not shown
chain: not shown
notes: OA (one-armed) format; clones 7844, 8781, 4372; also called v14046
B6: Variant 14049 (antibody, human IgG1, kappa)
heavy: B1 heavy with K76W
light: not shown
chain: not shown
notes: OA (one-armed) format; clones 8776, 7919, 4372; also called v14049
B7: Variant 14044 (antibody, human IgG1, kappa)
heavy: B1 heavy with Y30T, K76W, S103W
light: not shown
chain: not shown
notes: OA (one-armed) format; clones 8774, 7919, 4372; also called v14044
B8: Variant 14051 (antibody, human IgG1, kappa)
heavy: B1 heavy with Y30Q
light: not shown
chain: not shown
notes: OA (one-armed) format; clones 7815, 8781, 4372; also called v14051
B9: Variant 14045 (antibody, human IgG1, kappa)
heavy: B1 heavy with Y30Q, K76W, S103W
light: not shown
chain: not shown
notes: OA (one-armed) format; clones 8784, 1811, 4372; also called v14045
B10: Variant 14041 (antibody, human IgG1, kappa)
heavy: B1 heavy with S103W
light: not shown
chain: not shown
notes: OA (one-armed) format; clones 8785, 1811, 4372; also called v14041

The target of one assay is T1, Recombinant human HER2 (human, UniProt P04626 23-652).
T1 construct: extracellular domain; Analyte of the SPR assays; also called HER2 ECD; ECD2 of HER2
The assay can be described thus: SPR, 25 C; Ka ratio to WT v10013.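 Also: constructs captured via anti-human Fc on CM5 chip, HER2 ECD as analyte in duplicate dilutions, sensorgrams globally fit to 1:1 Langmuir model on Biacore T200.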 On the technique in general: SPR reads the build-up and loss of mass on a sensor chip optically.
Procedure: (§1) The affinity towards HER2 ECD of the samples was measured by SPR on a Biacore T200 as follows. Between 2000 and 4000 RU of anti-human Fc injected at concentration between 5 and 10 μg/ml was immobilized on a CM5 chip using standard amine coupling. Antigen-binding constructs were captured on the anti-human Fc (injected at concentration at 0.51 microg/mL in PBST, 1 min at 10 microl/min) at response levels ranging from 120-270 RU. […] HER2 dilutions were analyzed in duplicates. Sensograms were fit globally to a 1: 1 Langmuir binding model, using the software provided with the Biacore T200. All experiments were conducted at 25° C.
On to B1, for which the “Ka, mut/Ka, WT” value amounted to 18 fold.
On to B2, for which the “Ka, mut/Ka, WT” value was roughly 188 fold.
Turning to B3, the “Ka, mut/Ka, WT” value was determined as 15 fold.
For the molecule B4, the “Ka, mut/Ka, WT” value is 15 fold.
Turning to B5, the “Ka, mut/Ka, WT” value was roughly 212 fold.
B6: the “Ka, mut/Ka, WT” value is roughly 103 fold.
As for B7, the “Ka, mut/Ka, WT” value is 57 fold.
For B8, the “Ka, mut/Ka, WT” value was roughly 62 fold.
On the same count and under the same terms, for B9 the value was roughly 229 fold.
On to B10, for which the “Ka, mut/Ka, WT” value is 17 fold.

Another assay concerns the target T1, Recombinant human HER2. Briefly: calculated from the SPR Ka ratio to WT v10013.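 Also: SPR at 25 °C with constructs captured on an anti-human Fc chip and HER2 extracellular domain as analyte, kinetics fitted to a 1:1 Langmuir model.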
Procedure: as §1
With B1, the ΔΔG was -1.7 kcal/mol.
On to B2, for which the ΔΔG was -3.1 kcal/mol.
On the same count and under the same terms, the value for B3 was -1.6 kcal/mol; that for B4 was -1.6 kcal/mol.
Same read-out and setting: the value for B5 was -3.2 kcal/mol.
Same read-out and setting: the value for B6 was -2.7 kcal/mol; that for B7 was -2.4 kcal/mol; that for B8 was -2.4 kcal/mol.
With B9, the ΔΔG was -3.2 kcal/mol.
The same measure, in the same setting: for B10 the value was -1.7 kcal/mol.

In a further assay the target is T1, Recombinant human HER2. The assay can be described thus: SPR, Biacore T200, 25 C; variant captured on anti-human Fc, HER2 flowed.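 Also: HER2 extracellular domain analyte run as duplicate dilutions over amine-coupled anti-Fc on a CM5 chip, rates from global sensorgram fitting with a 1:1 Langmuir model.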
Procedure: as §1
For B1, the Kd was 1.1 nM, the koff was found to be 5.5e-05 s⁻¹ and the kon turned out to be 50000 M⁻¹ s⁻¹.
Regarding B2, the Kd is roughly 0.1 nM, the koff is roughly 7.1e-06 s⁻¹ and the kon amounted to 70000 M⁻¹ s⁻¹.
On to B3, for which the dissociation constant (Kd) amounted to 1.2 nM, the koff was 7.9e-05 s⁻¹ and the kon came out at 64000 M⁻¹ s⁻¹.
B4: the Kd was determined as 1.2 nM, the koff was 5.9e-05 s⁻¹ and the kon turned out to be 47000 M⁻¹ s⁻¹.
Take B5: the Kd is roughly 0.091 nM, the koff was roughly 9.1e-06 s⁻¹ and the kon came out at 100000 M⁻¹ s⁻¹.
On the same counts, the results for B6 are roughly 0.19 nM, roughly 1.4e-05 s⁻¹ and 77000 M⁻¹ s⁻¹.
As for B7, the dissociation constant (Kd) is 0.33 nM, the koff stood at 3.2e-05 s⁻¹ and the kon was found to be 96000 M⁻¹ s⁻¹.
For the molecule B8, the Kd was roughly 0.31 nM, the koff was roughly 1.64e-05 s⁻¹ and the kon came out at 53000 M⁻¹ s⁻¹.
Consider B9, for which the Kd is roughly 0.084 nM, the koff is roughly 5.9e-06 s⁻¹ and the on-rate constant (kon) came to 71000 M⁻¹ s⁻¹.
On the same counts, the results for B10 are 1.1 nM, 5.8e-05 s⁻¹ and 51000 M⁻¹ s⁻¹.
